Measurements reported in article PMC9407527 (Proceedings of the National Academy of Sciences of the …, 2022).
Square brackets hold non-standard residues; d marks the D form. Ends that are not written are not given here. * marks the point of attachment. MTSL = spin label, CC1(C)C=C(CS*)C(C)(C)N1[O]; pS = N[C@@H](COP(=O)(O)O)C(=O)O

What was measured:
[1] = biological target: T1, fluorescent-tagged His-tagged occludin 413–522 (human, UniProt Q16625 413-522, fluorescent label from the MonolithNT His-Tag Labeling Kit (NanoTemper)); assay: MST
T1 sequence (looked up): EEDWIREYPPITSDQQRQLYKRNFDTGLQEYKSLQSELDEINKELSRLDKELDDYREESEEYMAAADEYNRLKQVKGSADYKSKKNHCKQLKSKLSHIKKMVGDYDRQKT

[2] = biological target: T2, occludin 413–522 α-helical bundle (NMR construct with the N-terminal extension GPLGS) (human, UniProt Q16625 413-522); assay: NMR paramagnetic relaxation enhancement
T2 sequence: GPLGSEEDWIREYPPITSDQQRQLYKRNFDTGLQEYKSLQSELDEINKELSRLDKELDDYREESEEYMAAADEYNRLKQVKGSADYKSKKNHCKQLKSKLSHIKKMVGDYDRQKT

With AKGRAGRSKRTEQDHYETDYTTGGE[pS]CDEL [synthetic occludin 383–412 peptide phosphorylated at S408] as the binder, how does the Kd [1] read?
The Kd was 37 ± 15 µM.

Does AKGRAGRSKRTEQDHYETDYTTGGEDC(MTSL)DEL (peptide, UniProt Q16625 383-412, looked up) [occludin 383–412^S408D unstructured region peptide, MTSL-labelled at C409] bind [2]?
Result: binds

Does AKGRAGRSKRTEQDHYETDYTTGGEAC(MTSL)DEL (peptide, UniProt Q16625 383-412, looked up) [occludin 383–412^S408A unstructured region peptide, MTSL-labelled at C409] bind [2]?
Result: binds

How did the Kd [1] turn out when AKGRAGRSKRTEQDHYETDYTTGGESCDEL [synthetic occludin 383–412 peptide, nonphosphorylated] was run?
The Kd was 175 ± 27 µM.
